In US20090098112A1 (Genentech, published 2009):
Residue numbers refer to the chain shown, from its start. Names may count otherwise.

Assays:
[1] = target: T1, recombinant human integrin α5β1 (R&D) (human, UniProt P08648 42-995; P05556 21-728); assay: phage competition ELISA IC50 of the Fab-phage against human integrin α5β1, relative to parental h7H5.v1; down arrow = loss, up arrow = improvement of binding affinity
T1 construct: Bought recombinant heterodimer (R&D); It was used coated on plates and in solution in the phage ELISA, and as analyte or immobilized in BIAcore; also called alpha5beta1; a5b1
T1 sequence (P08648 42-995 limits assumed, chain 1 of 2): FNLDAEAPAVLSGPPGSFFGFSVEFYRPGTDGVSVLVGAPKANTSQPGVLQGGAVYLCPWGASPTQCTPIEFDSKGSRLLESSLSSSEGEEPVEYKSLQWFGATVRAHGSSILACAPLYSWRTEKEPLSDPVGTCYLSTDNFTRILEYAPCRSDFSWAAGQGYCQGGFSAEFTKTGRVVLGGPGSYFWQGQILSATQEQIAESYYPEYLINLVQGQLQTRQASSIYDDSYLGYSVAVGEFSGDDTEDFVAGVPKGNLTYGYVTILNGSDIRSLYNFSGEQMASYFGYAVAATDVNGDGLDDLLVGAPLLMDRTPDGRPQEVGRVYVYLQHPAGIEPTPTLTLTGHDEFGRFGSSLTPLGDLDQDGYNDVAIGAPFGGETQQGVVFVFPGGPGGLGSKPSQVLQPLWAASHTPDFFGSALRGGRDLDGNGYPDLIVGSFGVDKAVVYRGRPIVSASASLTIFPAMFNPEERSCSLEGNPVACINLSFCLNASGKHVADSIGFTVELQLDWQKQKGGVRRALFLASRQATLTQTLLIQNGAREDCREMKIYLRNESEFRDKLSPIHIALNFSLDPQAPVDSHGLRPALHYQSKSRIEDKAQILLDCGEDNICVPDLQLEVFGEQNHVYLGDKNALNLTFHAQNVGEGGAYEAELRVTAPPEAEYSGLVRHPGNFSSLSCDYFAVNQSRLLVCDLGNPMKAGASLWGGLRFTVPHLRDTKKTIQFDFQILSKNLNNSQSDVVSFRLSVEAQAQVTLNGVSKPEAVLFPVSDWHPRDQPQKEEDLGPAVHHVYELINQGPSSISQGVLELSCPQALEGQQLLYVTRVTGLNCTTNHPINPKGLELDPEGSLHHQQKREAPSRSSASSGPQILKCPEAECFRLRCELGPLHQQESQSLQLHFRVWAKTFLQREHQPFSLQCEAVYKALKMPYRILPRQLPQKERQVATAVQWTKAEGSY
T1 sequence (P05556 21-728 limits assumed, chain 2 of 2): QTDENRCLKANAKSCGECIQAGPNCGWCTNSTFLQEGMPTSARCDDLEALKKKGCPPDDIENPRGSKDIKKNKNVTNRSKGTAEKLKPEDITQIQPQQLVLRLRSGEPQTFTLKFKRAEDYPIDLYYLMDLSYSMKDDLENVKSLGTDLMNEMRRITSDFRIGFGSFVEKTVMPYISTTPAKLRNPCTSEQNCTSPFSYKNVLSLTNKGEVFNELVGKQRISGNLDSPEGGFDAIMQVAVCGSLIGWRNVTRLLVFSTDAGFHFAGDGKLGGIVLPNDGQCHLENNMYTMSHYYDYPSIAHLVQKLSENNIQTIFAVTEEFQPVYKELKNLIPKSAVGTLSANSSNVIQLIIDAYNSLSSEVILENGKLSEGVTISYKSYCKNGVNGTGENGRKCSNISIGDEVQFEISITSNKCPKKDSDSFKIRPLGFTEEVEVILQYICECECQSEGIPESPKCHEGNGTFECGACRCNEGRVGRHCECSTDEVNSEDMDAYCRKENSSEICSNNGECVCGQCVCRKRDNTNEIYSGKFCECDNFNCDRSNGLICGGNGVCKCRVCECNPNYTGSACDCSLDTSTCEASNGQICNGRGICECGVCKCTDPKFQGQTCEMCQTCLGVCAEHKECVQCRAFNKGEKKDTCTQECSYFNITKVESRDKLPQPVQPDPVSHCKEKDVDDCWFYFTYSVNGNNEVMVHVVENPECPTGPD
Description: Substitutions with other resides at various positions was achieved by Kunkel mutagenesis using a separate oligonucleotide for each position. […] The IC50 values for binding affinity were determined by phage competition ELISA in FIG. 6. Two variants, h7H5.v2 and h7H5.v3 as indicated were selected to include glycine substitution at position 65 of CDR-H2, cloned into hIgG1 vector, and evaluated binding affinities using BIAcore instrument.
(§1) MAXISORP™ microtiter plates were coated with recombinant human integrin α5β1 (R&D) at 5 μg/ml in PBS overnight and then blocked with PBST buffer (0.5% BSA and 0.05% Tween 20 in PBS) for an hour at room temperature. Phage from culture supernatants were incubated with serially diluted human integrin α5β1 in PBST buffer in a tissue-culture microtiter plate for an hour, after which 80 μl of the mixture was transferred to the target-coated wells for 15 minutes to capture unbound phage. The plate was washed with PBT buffer (0.05% Tween 20 in PBS), and HRP-conjugated anti-M13 (Amersham Pharmacia Biotech) was added (1:5000 in PBST buffer) for 40 minutes. The plate was washed with PBT buffer and developed by adding tetramethylbenzidine substrate (Kirkegaard and Perry Laboratories, Gaithersburg, Md.). The absorbance at 450 nm was plotted as a function of target concentration in solution to determine phage IC₅₀.

[2] = target: T1, recombinant human integrin α5β1 (R&D); assay: phage competition ELISA: Fab-phage incubated with serially diluted soluble human integrin α5β1, unbound phage captured on plate-coated integrin α5β1, anti-M13-HRP, A450
Description: Mutation at each position was generated by Kunkel mutagenesis using a separate oligonucleotide. Phage competition ELISA was utilized for evaluating all of the variants. […] Binding affinities (IC50) against human integrin α5β1 was determined.
as §1

[3] = target: T1, recombinant human integrin α5β1 (R&D); assay: SPR (BIACORE-3000), antibody immobilized on CM5 chip (about 450 RU), human integrin α5β1 injected 300 nM to 0.29 nM, 25 °C, 1:1 Langmuir fit
Description: FIG. 7 depicts the results of a BIACORE® analysis of humanized 7H5.v1, v2 and v3-IgG against human integrin α5β1. […] Humanized 7H5.v2 indicates the most binding affinity improvement in off-rate.
(§2) Affinity determinations were performed by surface-plasmon resonance using a BIACORE™-3000 instrument. Immobilization was achieved by random coupling through amino groups using a protocol provided by the manufacturer. Two different formats were operated to study binding kinetics for antibody against human integrin α5β1. In FIGS. 3A, 7, and 9A, antibodies were immobilized on a CM5 sensor chip around 450 response units (RU), and 2-fold serial diluted concentrations of human integrin α5β1 (300 nM to 0.29 nM) in PBT buffer (0.05% Tween 20 in PBS) were injected with a flow rate of 30 μl/min at 25° C. In FIGS. 3B and 9B, human integrin […] was immobilized on a CM5 sensor chip around 800 RU, and 2-fold serial diluted concentrations of antibodies (200 nM to 0.2 nM) in PBT buffer (0.05% Tween 20 in PBS) were injected with a flow rate of 30 μl/min at 25° C. After each injection, the chip was regenerated using 10 mM Glycine-HCl buffer at pH 1.7. Binding response was corrected by subtracting the RU from a blank flow cell. Association rates (kₒₙ) and dissociation rates (koff) were calculated using a simple one-to-one Langmuir binding model (BIAcore Evaluation Software version 3.2). The equilibrium dissociation constant (Kd) was calculated as the ratio koff/kₒₙ.

[4] = target: T1, recombinant human integrin α5β1 (R&D); assay: as above; remark: listed apart in the source
Description: (§3) FIG. 9 depicts the results of a BIACORE® analysis of humanized 7H5.v2, v4 and v5-IgG against human integrin α5β1.
as §2

[5] = target: T1, recombinant human integrin α5β1 (R&D); assay: SPR (BIACORE-3000), human integrin α5β1 immobilized on CM5 chip (about 800 RU), antibody injected 200 nM to 0.2 nM, 25 °C, 1:1 Langmuir fit
Description: as §3, §2

B1: CDR-L1:N28A (Fab, part only; not given: VH end, constant domains, phage fusion, V domains shown, not shown: another chain or arm of the molecule; large carriers)
VL: DIQMTQSPSSLSASVGDRVTITCKASQAVGSDVAWYQQKPGKAPKTLIYSTSYRYSGVPSRFSGSGSGTDFTLTISSLQPEDFATYYCQQYNSYPFTFGQGTKVEIK
VH: EVQLVESGGGLVQPGGSLRLSCAASGYTFTDYYLYWVRQAPGKGLEWIGGISPSNGGTTFNDNFENKATLSVDKSKNTAYLQMNSLRAEDTAVYYCTRDAYGDWYFDVWGQGT
Relative Fold to h7H5.v1 [1]: 2.1 fold
IC50 (read off the curve) [2]: 0.2 nM

B2: humanized 7H5.v2-IgG (antibody, V domains shown)
VH: B1 VH with N55S, N61A, N63A, N66G
VL: DIQMTQSPSSLSASVGDRVTITCKASQSVGSDVAWYQQKPGKAPKTLIYSTSYRYSGVPSRFSGSGSGTDFTLTISSLQPEDFATYYCQQYSSYPFTFGQGTKVEIKR
notes: also called h7H5.v2
Kd [3]: 0.77 nM
koff [3]: 6.2e-05 s⁻¹
kon [3]: 81000 M⁻¹ s⁻¹
Kd [4]: 0.77 nM
koff [4]: 6.4e-05 s⁻¹
kon [4]: 83000 M⁻¹ s⁻¹
Kd [5]: 0.11 nM
koff [5]: 0.00015 s⁻¹
kon [5]: 1.4e+06 M⁻¹ s⁻¹

B3: CDR-H2:N54S (Fab, part only; not given: VH end, constant domains, phage fusion, V domains shown, not shown: another chain or arm of the molecule; a dimerising Fc or GST; large carriers)
VL: B1 VL with A28N
VH: B1 VH with N55S
Relative Fold to h7H5.v1 [1]: 1 fold

B4: CDR-H2:N60S (Fab, part only; not given: VH end, constant domains, phage fusion, V domains shown, not shown: another chain or arm of the molecule; a dimerising Fc or GST; large carriers)
VL: B1 VL with A28N
VH: B1 VH with N61S
Relative Fold to h7H5.v1 [1]: 2.5 fold

B5: CDR-H2:N62A (Fab, part only; not given: VH end, constant domains, phage fusion, V domains shown, not shown: another chain or arm of the molecule; a dimerising Fc or GST; large carriers)
VL: B1 VL with A28N
VH: B1 VH with N63A
Relative Fold to h7H5.v1 [1]: 1 fold

B6: h7H5.v2 displayed on phage as a monovalent Fab (Fab, V domains shown)
VH: B1 VH with N55S, N61A, N63A, N66G
VL: B2 VL
notes: also called humanized 7H5.v2; parental clone
IC50 (read off the curve) [2]: ~0.06 nM

B7: N28S(L1)+N92S(L3)+N54S/N60A/N62A/N65S(H2) (Fab, part only; not given: VH end, constant domains, phage fusion, V domains shown, not shown: another chain or arm of the molecule; large carriers)
VL: B1 VL with A28S, N92S
VH: B1 VH with N55S, N61A, N63A, N66S
IC50 (read off the curve) [2]: 0.04 nM

B8: CDR-H2:N60A (Fab, part only; not given: VH end, constant domains, phage fusion, V domains shown, not shown: another chain or arm of the molecule; a dimerising Fc or GST; large carriers)
VL: B1 VL with A28N
VH: B1 VH with N61A
Relative Fold to h7H5.v1 [1]: 1.6 fold

B9: CDR-H2:N62S (Fab, part only; not given: VH end, constant domains, phage fusion, V domains shown, not shown: another chain or arm of the molecule; a dimerising Fc or GST; large carriers)
VL: B1 VL with A28N
VH: B1 VH with N63S
Relative Fold to h7H5.v1 [1]: 1.3 fold
IC50 (read off the curve) [2]: 0.1 nM

B10: CDR-H2:N54A (Fab, part only; not given: VH end, constant domains, phage fusion, V domains shown, not shown: another chain or arm of the molecule; a dimerising Fc or GST; large carriers)
VL: B1 VL with A28N
VH: B1 VH with N55A
Relative Fold to h7H5.v1 [1]: 2.4 fold
IC50 (read off the curve) [2]: 0.2 nM

B11: HC:A78L (Fab, part only; not given: VH end, constant domains, phage fusion, V domains shown, not shown: another chain or arm of the molecule; large carriers)
VL: B1 VL with A28S, N92S
VH: B1 VH with N55S, N61A, N63A, N66G, A79L
IC50 (read off the curve) [2]: 0.09 nM

B12: h7H5.v1 (Fab, part only; not given: VH end, constant domains, phage fusion, V domains shown, not shown: another chain or arm of the molecule; large carriers)
VL: B1 VL with A28N
VH: B1 VH
IC50 (read off the curve) [2]: 0.05 nM

B13: HC:G49S (Fab, part only; not given: VH end, constant domains, phage fusion, V domains shown, not shown: another chain or arm of the molecule; large carriers)
VL: B1 VL with A28S, N92S
VH: B1 VH with G49S, N55S, N61A, N63A, N66G
IC50 (read off the curve) [2]: 0.07 nM

B14: h7H5.v2 framework modification clone, heavy chain K66R, displayed on phage as a monovalent Fab (Fab, name in Kabat numbering, V domains shown)
VH: B1 VH with N55S, N61A, N63A, N66G, K67R
VL: B2 VL
notes: Single mutation in h7H5.v2 made by Kunkel mutagenesis; monovalent Fab on phage; The position is Kabat and may be shifted from the count on the entry; also called heavy chain position 66 (K66R)
binding result [2]: binds

B15: h7H5.v2 framework modification clone, heavy chain I48V, displayed on phage as a monovalent Fab (Fab, name in Kabat numbering, V domains shown)
VH: B1 VH with I48V, N55S, N61A, N63A, N66G
VL: B2 VL
notes: Single mutation in h7H5.v2 made by Kunkel mutagenesis; monovalent Fab on phage; also called heavy chain position 48 (I48V)
binding result [2]: binds

B16: h7H5.v2 framework modification clone, heavy chain L69I, displayed on phage as a monovalent Fab (Fab, name in Kabat numbering, V domains shown)
VH: B1 VH with N55S, N61A, N63A, N66G, L70I
VL: B2 VL
notes: Single mutation in h7H5.v2 made by Kunkel mutagenesis; monovalent Fab on phage; The position is Kabat and may be shifted from the count on the entry; also called heavy chain position 69 (L69I)
IC50 (read off the curve) [2]: ~0.05 nM

B17: CDR-L3:N92A (Fab, V domains shown)
VH: B1 VH
VL: B1 VL with A28N, N92A
notes: Fab-phage; also called h7H5.v1 single point mutant, light chain N92A, Fab-phage
Relative Fold to h7H5.v1 [1]: 1 fold

B18: h7H5.v2 framework modification clone, light chain T46L, displayed on phage as a monovalent Fab (Fab, name in Kabat numbering, V domains shown)
VH: B1 VH with N55S, N61A, N63A, N66G
VL: B2 VL with T46L
notes: Single mutation in h7H5.v2 made by Kunkel mutagenesis; monovalent Fab on phage; also called light chain position 46 (T46L)
binding result [2]: binds

B19: CDR-L1:N28S (Fab, V domains shown)
VH: B1 VH
VL: B1 VL with A28S
notes: Fab-phage; also called h7H5.v1 single point mutant, light chain N28S, Fab-phage; copies: 1 + 1
Relative Fold to h7H5.v1 [1]: 1.3 fold

B20: h7H5.v3 (antibody, human IgG1, V domains shown)
VH: B1 VH with N55S, N61A, N63S, N66G
VL: B2 VL
notes: as human IgG1; also called humanized 7H5.v3-IgG
Kd [3]: 1.07 nM
koff [3]: 7.5e-05 s⁻¹
kon [3]: 70000 M⁻¹ s⁻¹

B21: h7H5.v5 (antibody, human IgG1, V domains shown)
VH: B1 VH with T30S, I48V, G49S, N55S, N61A, N63A, N66G, K67R, A68F, L70I
VL: B2 VL with T46L
notes: as human IgG1; also called humanized 7H5.v5-IgG
Kd [4]: 0.97 nM
koff [4]: 6.7e-05 s⁻¹
kon [4]: 69000 M⁻¹ s⁻¹
Kd [5]: 0.26 nM
koff [5]: 0.00017 s⁻¹
kon [5]: 660000 M⁻¹ s⁻¹

B22: CDR-L3:N92S (Fab, V domains shown)
VH: B1 VH
VL: B1 VL with A28N, N92S
notes: Fab-phage; also called h7H5.v1 single point mutant, light chain N92S, Fab-phage; copies: 1 + 1
Relative Fold to h7H5.v1 [1]: 1 fold

B23: h7H5.v2 framework modification clone, heavy chain T30S, displayed on phage as a monovalent Fab (Fab, name in Kabat numbering, V domains shown)
VH: B1 VH with T30S, N55S, N61A, N63A, N66G
VL: B2 VL
notes: Single mutation in h7H5.v2 made by Kunkel mutagenesis; monovalent Fab on phage; also called heavy chain position 30 (T30S)
binding result [2]: binds

B24: humanized 7H5.v4-IgG (antibody, V domains shown)
VH: B1 VH with T30S, I48V, N55S, N61A, N63A, N66G, K67R, A68F, L70I
VL: B2 VL with T46L
notes: also called h7H5.v4
Kd [4]: 0.73 nM
koff [4]: 5.5e-05 s⁻¹
kon [4]: 75000 M⁻¹ s⁻¹
Kd [5]: 0.14 nM
koff [5]: 0.00013 s⁻¹
kon [5]: 930000 M⁻¹ s⁻¹

B25: h7H5.v2 framework modification clone, heavy chain A67F, displayed on phage as a monovalent Fab (Fab, name in Kabat numbering, V domains shown)
VH: B1 VH with N55S, N61A, N63A, N66G, A68F
VL: B2 VL
notes: Single mutation in h7H5.v2 made by Kunkel mutagenesis; monovalent Fab on phage; The position is Kabat and may be shifted from the count on the entry; also called heavy chain position 67 (A67F)
binding result [2]: binds
